Source: PMC5260992

Biological target: Pin1 (UniProt Q13526)
Test: modified ELISA, plate-coated peptide
Conditions: reference: non-phosphorylated peptide T184; sites T184

Substance: ATF1 (activating transcription factor 1) (from UniProt P18846) phosphorylated peptide pT184
- binding against the reference: stronger
